From patent publication US20060246077 (published 2006) come the findings set out here.

This assay deals with MUC18-V5-His (extracellular domain) (human, UniProt P43121). Briefly: SPR, average. Background: SPR reads the build-up and loss of mass on a sensor chip optically.
Chain of MUC18-V5-His (extracellular domain) (P43121 1-559): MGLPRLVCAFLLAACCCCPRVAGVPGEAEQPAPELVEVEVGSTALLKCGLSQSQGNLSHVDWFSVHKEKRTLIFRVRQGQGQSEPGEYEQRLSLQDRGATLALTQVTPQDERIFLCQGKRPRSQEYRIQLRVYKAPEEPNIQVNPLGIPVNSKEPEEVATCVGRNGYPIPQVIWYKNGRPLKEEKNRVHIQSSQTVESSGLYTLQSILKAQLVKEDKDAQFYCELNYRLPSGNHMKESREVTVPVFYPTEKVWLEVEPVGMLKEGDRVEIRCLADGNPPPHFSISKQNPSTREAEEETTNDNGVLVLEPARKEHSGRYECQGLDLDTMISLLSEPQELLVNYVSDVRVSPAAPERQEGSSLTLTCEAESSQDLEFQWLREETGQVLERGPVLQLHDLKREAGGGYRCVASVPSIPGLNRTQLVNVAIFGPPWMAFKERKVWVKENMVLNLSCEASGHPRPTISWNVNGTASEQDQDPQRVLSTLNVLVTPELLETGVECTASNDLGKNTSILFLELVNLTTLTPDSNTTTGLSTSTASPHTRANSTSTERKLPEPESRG

B1: c3.19.1 (antibody, V domains shown)
VH: QVQLQESGPGLVKPSETLSLTCTVSGGSISSYYWSWIRQPPGKGLEWIGYIYYTWTSNYNPSLKSRVTISVDTSKNQFSLRLSSVTAADTAVYYCARDQGQWLLPDAFDIWGQGTMVTVSS
VL: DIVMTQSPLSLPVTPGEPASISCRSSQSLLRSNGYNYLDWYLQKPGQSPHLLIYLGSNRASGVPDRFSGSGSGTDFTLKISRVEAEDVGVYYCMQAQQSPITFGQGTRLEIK
Consider B1, for which the Kd (commonly the free concentration of one partner at which half of the binding sites on the other are occupied at equilibrium, for simple one-to-one binding) is 0.61 nM. This counts as sub-nanomolar.
